Results reported in patent publication US20230348603A1 (VERSEAU THERAPEUTICS, published 2023).

T1: Cynomolgus Monkey VSIG4-L-His (cynomolgus monkey)
T1 construct: ECD with His tag; also called cyVSIG4-L; cyno VSIG4-L-His
T1 chain: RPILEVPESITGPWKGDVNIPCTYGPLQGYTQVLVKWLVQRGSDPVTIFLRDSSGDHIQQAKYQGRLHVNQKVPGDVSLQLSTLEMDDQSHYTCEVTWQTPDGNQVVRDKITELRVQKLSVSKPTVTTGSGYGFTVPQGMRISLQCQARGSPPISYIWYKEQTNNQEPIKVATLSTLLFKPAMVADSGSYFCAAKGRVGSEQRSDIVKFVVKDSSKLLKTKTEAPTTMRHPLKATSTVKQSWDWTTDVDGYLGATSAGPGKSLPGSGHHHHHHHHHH

T2: Human VSIG4-L-His (human, UniProt Q9Y279 20-283)
T2 construct: long isoform ECD with His tag; also called hVSIG4-L
T2 sequence: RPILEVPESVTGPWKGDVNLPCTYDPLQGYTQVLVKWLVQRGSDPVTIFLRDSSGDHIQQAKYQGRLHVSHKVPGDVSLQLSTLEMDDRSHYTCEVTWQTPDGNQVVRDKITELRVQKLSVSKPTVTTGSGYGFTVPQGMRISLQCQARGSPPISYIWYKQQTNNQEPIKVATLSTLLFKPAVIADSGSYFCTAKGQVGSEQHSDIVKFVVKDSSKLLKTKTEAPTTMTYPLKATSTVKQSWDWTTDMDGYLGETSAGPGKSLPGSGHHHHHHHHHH


Assays:
[1] = target: T3, Human VSIG4-S-Fc (human); assay: ELISA, Fab P.E. 1:5 on coated antigen;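 note: mouse Fab P.E. samples in 1% skimmed milk PBS, bound to antigen-coated wells for 1 h at room temperature, read as absorbance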
T3 construct: short isoform ECD fused to human Fc1; also called hVSIG4-S
T3 sequence (chain, as listed by the source limits assumed): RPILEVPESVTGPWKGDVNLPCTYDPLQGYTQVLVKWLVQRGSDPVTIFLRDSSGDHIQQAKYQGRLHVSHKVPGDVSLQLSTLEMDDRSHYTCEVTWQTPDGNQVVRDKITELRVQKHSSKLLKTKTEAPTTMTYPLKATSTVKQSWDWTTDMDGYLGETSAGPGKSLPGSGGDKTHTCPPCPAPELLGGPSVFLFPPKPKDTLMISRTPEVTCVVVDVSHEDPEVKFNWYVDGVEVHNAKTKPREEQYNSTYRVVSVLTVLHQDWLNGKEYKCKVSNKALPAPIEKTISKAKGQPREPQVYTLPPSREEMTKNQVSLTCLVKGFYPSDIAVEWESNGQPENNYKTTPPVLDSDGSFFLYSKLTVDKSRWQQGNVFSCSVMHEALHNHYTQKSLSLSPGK
Method: (§1) Coated microplates were blocked with dried skimmed milk at 4% in PBS. P.E. samples of the mouse unique Fab sequences were diluted 1:5 in assay buffer (1% dried skimmed milk in PBS), and 100 μl of diluted sample was added onto the coated wells and incubated for one hour at room temperature. […] Optical density (OD) at 450 nm was determined using a standard absorbance microplate reader.

[2] = target: T4, Human VSIG4-L-Fc (human); assay: ELISA, Fab P.E. 1:5 on coated antigen;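 note: mouse Fab P.E. samples in 1% skimmed milk PBS, bound to antigen-coated wells for 1 h at room temperature, read as absorbance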
T4 construct: also called hVSIG4-L-Fc; hVSIG4-L
Target sequence in this assay (chain, as listed by the source limits assumed): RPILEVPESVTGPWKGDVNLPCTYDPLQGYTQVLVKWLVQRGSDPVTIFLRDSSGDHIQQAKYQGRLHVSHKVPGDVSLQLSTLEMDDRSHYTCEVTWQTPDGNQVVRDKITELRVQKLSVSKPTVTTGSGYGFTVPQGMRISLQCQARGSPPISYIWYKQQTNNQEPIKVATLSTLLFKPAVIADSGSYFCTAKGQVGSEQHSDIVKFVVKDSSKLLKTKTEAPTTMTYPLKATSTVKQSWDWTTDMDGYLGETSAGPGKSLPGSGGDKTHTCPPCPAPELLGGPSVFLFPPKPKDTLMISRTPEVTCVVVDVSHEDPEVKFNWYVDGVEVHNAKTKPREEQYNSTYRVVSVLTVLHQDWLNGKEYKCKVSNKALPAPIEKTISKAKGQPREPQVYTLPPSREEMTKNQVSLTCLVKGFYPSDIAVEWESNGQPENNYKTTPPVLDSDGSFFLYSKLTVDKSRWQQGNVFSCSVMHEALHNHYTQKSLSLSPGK
Method: as §1

[3] = target: T1, Cynomolgus Monkey VSIG4-L-His; assay: ELISA, Fab P.E. 1:5 on coated antigen;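 note: mouse Fab P.E. samples in 1% skimmed milk PBS, bound to antigen-coated wells for 1 h at room temperature, read as absorbance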
Method: as §1

[4] = target: T2, Human VSIG4-L-His; assay: SPR (Biacore T200), Fab P.E. 1:5 over immobilised antigen
Method: Off-rate values of the mouse unique Fab clones were determined using surface plasmon resonance (SPR) in Biacore™ T200 equipment (GE Healthcare, Chicago, IL). […] The immobilization was performed in accordance with a method provided by Biacore and by using the NHS/EDC kit (GE Healthcare, Chicago, IL). […] Sixty μl of Fab P.E. samples, diluted 1:5 in HBS-EP+ assay buffer (0.1 M HEPES, 1.5 M NaCl, 0.03 M EDTA and 0.5% v/v Surfactant P20), were injected and passed through the flow cells at a flow rate of 30 μl/min. After binding of the samples to VSIG4 protein, the off-rate was monitored for a period of five minutes. The flow cell surface was regenerated by a double injection of 10 μl of 1 mM glycine at pH 1.5 in 1 M sodium chloride at 30 μl/min. Off-rate analysis was done using the BIAevaluation software (GE Healthcare, Chicago, IL) and using a 1:1 dissociation kinetic fit curve.

[5] = target: T4, Human VSIG4-L-Fc; assay: blocking ELISA, biotin-iC3b on coated hVSIG4-L-Fc
Method: (§2) Coated microplates were blocked with casein (Sigma-Aldrich, St. Louis, MO) at 1% in PBS. […] One hundred ill of the mixed sample was added onto the coated wells and incubated for one hour at room temperature. […] OD at 450 nm was determined using a standard absorbance microplate reader.

[6] = target: T4, Human VSIG4-L-Fc; assay: blocking ELISA, biotin-C3b on coated hVSIG4-L-Fc
Method: as §2

ELISA OD450 [1] [OD450] | ELISA OD450 [2] [OD450] | ELISA OD450 [3] [OD450] | koff [4] [s⁻¹] | Percent Blocking iC3b [5] [%] | Percent Blocking C3b [6] [%] | Binder
4.18 | 4.32 | 4.32 | 0.0063 | 56 | 70.3 | 14D12 mouse Fab (periplasmic extract) (Fab, V domains shown, mouse Fab with C-terminal His6-c-myc tag) VH: QIQLVQSGPELKKPGETVKISCKASGYTFTNYGMNWVKQTPGKGLKWMGLINTYTGEPTYADDFKGRFAFSLETSASTAYLQINNLKNEDMATYFCARERIYGYLHYFDYWGQGTTLTVSS VL: DVVMTQTPASLAVSLGQRATISCKASQSVDYDGDSYMNWYQQKPGQPPKLLIYAASNLESGIPARFSGSGSGTDFTLNIHPVEEEDAATYYCQQSNEDPRTFGGGTKLEIK
1.32 | 1.86 | 1.88 | 0.025 | 7.6 | 7.1 | 16E10 mouse Fab (periplasmic extract) (Fab, V domains shown, mouse Fab with C-terminal His6-c-myc tag) VH: QVQLQQSGAELVRPGTSVKISCKASGYTFTNYWLGWVKQRPGHGLEWIGDIYPGGGYTNYNEKFKGKATLTADTSSSTAYMQLSSLTSEDSAVYFCAKFYYYGSSYYFDSWGQGTTLTVSS VL: DIVLTQSPSSLSVSAGEKVTLSCKSSQSLLNSGNQENYLAWYQQKPGQPPKLLIYGASTRESGVPDRFTGSGSGTDFTLTISSVQAEDLAVYYCQNDHSYPLTFGAGTKLELK
